According to the supplement of paper PMC12042874:
± gives the uncertainty stated by the source.

Experiment: amyloid nucleation score (Sup35N fusion, yeast selection) (log enrichment); library NNK2; higher = more nucleation; inactive = no reads after selection
Summary of the method: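 Peptides of 20 random codons, each fused to Sup35N, were expressed in psi-negative yeast. Cells were induced with 100 μM copper sulfate for 24 hours and grown 7 days at 30°C on medium lacking adenine and uracil, and plasmid inserts before and after selection were Illumina-sequenced. Nucleation scores are DiMSum log enrichments of output over input reads, centred on the mode score of non-aggregating sequences, and sequences under 100 input reads were excluded.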

Row | Substance | amyloid nucleation score
1 | LNTTLLTRPVLSSYRGSTAE | 1.23 ± 0.45
2 | CVFNTFMNDKIIGRLWPTDW | 2.91 ± 0.15
3 | VDRNVTSRSQVTSSFSWDIV | inactive
4 | LMIVKMTMFDATGHVGFLMV | 2.82 ± 0.071
5 | INGPCVYFNFL | 6.425 ± 0.057
6 | LLRAT | 0.598 ± 0.23
7 | VGSVICMFMCWFA | 4.75 ± 0.036
8 | FVDRTCLVRSMLRVLPITGG | 0.065 ± 0.61
9 | RSSADAPVY | -0.864 ± 1.1
10 | LRNGVPDADASSRYFWAAEW | 0.712 ± 0.24
11 | IRFNAYLRDEDYSKIREVLG | -1.41 ± 0.54
12 | YSGWFFCNFISLWV | 6.529 ± 0.057
13 | SGFGCLFTMW | 1.63 ± 0.27
14 | WLLVYYISARVQQSADNKRW | -1.02 ± 1
15 | FHRNMMVLQCIRRVL | 0.016 ± 1.1
16 | SRVEVNALVLISYYPVLDTA | 5.736 ± 0.039
17 | SHNFRISYKSCVLNSCMKRL | inactive
18 | NSRLEVGSNSKQDLMAMSKT | -1.12 ± 0.74
19 | GNRFPRPSPQGIIYKLLLFR | 2.92 ± 0.11
20 | CMKKWFS | 3.85 ± 0.075
21 | CSQVALLNKLFLPG | -1.14 ± 0.38
22 | VTIIVLPANVMLMWVFCYMY | -0.93 ± 0.78

Row | Substance | amyloid nucleation score
23 | TSVASGRNGNSPVHNALAWG | 0.2 ± 0.35
24 | RPIKRV | 0.173 ± 0.2
25 | DSGEPWILMFLDGYLSAMRL | -0.513 ± 0.61
26 | MLCRNIHRCKMHREPLGVFH | 0.578 ± 0.81
27 | RFQLVSAMAFTYMVAR | -0.211 ± 0.56
28 | FGLQMQAWREKDHQENGLIQ | 0.798 ± 0.31
29 | HSRHHWYPSWQFWMLRPQNC | 1.4 ± 0.43
30 | MIKHGYQWPCSLCT | 0.219 ± 0.46
31 | NKFKG | 0.19 ± 1.1
32 | DLAELISVKYLVTVSLWAGS | 0.621 ± 0.57
33 | MVFRNNYSEVTTRLAGNGRR | -0.074 ± 1.1
34 | ICCRRSMPMIINDLNFMSNS | 7.928 ± 0.035
35 | KRSVAVFRRCV | 0.817 ± 0.44
36 | SDYVYKFSVAWWVPVSSVVK | 0.701 ± 0.38
37 | KELLMAIASWSRLSGDIAVD | -0.86 ± 0.78
38 | HKWCKYNDLFVIHMSGFGRG | 5.44 ± 0.087
39 | DQTWNWNVGIGFYRSYFLMY | inactive
40 | FIHTRRCKYGWTSRFKTLTW | 0.105 ± 1.1
41 | LANYYFYYKDDVWQVMLWCT | -1.15 ± 0.36
42 | PAWSITLVPLLHTGCSDTKR | 0.582 ± 0.31
43 | EMVQVVSAQGKTKL | 8.461 ± 0.061
44 | SYACNRYKRMTAQIRNQGGM | 0.225 ± 0.42

Row | Substance | amyloid nucleation score
45 | VPDGHWSTHRRFSYMQVLNW | -0.441 ± 1.1
46 | HFETGGIS | 0.447 ± 0.57
47 | LCHYGCMVRESNLEYCPSME | 0.381 ± 0.48
48 | GIVVFINEMLTNTNPGKS | 6.954 ± 0.039
49 | IESPLIEFTIDCW | -0.025 ± 0.79
50 | QCLHSWDWLKSWFVFVGRGE | 3.88 ± 0.066
51 | SGILVKLVMIFSWKGGGV | 2.96 ± 0.066
52 | VSRII | inactive
53 | CRRSNFNYQGVLGYWHRFAG | -0.755 ± 1.1
54 | ALWGF | -0.235 ± 0.38
55 | SSYGIFVVGMLGSCRVQSRF | 3.79 ± 0.041
56 | VCQRPEMVLNSIETLQPRWS | 0.211 ± 0.21
57 | YFFSISWTCYFR | 3.27 ± 0.044
58 | SVMFMNSSFQRAT | -0.586 ± 0.42
59 | HNLCGYLLVSVAWVLWWIRR | 2.61 ± 0.11
60 | TRDSLGRKGYRSAVLTPSMP | 1.29 ± 0.14
61 | WEITLVNGSWVLESRTQRHF | 4.06 ± 0.079
62 | SGRLL | 1 ± 0.13
63 | RMYLVGMLMHSLLEEMSKTA | 4.76 ± 0.083
64 | TNDVTSWKLTHCYLWPKADF | -0.328 ± 0.32
65 | LIYITVGRLQHGALCFLGKC | 0.148 ± 1
66 | TFPMEFLPF | -1.12 ± 0.49

Row | Substance | amyloid nucleation score
67 | LSGLRSFLRRWRGQVKPVLV | -0.133 ± 1
68 | VAKLLMAGVVKPCRGGRCVG | 0.936 ± 0.16
69 | GTMLMGVE | 0.449 ± 0.8
70 | GASFMSRNIRTWMTMWCDLK | 0.012 ± 0.23
71 | PIRCRMKFY | -0.599 ± 0.38
72 | TLCRGTVLVAFGSPNITPSK | 3.89 ± 0.059
73 | YREACCCNSFACPGATDVGP | 9.188 ± 0.046
74 | HNWLSMVQYH | -0.344 ± 0.76
75 | WLPKVWLRVRWFNEEKRDGG | -0.123 ± 0.54
76 | LCNGLFTFMEASSGRHAPQF | 0.138 ± 0.76
77 | YLVPFWVVDCFDGLD | 0.072 ± 1.1
78 | AVIMRFVYYDAYWGLWMVKE | 0.228 ± 1
79 | CFHVITVNPGLQ | 1.37 ± 0.39
80 | IKILLCRSGARIGVSCDMSC | 0.706 ± 0.74
81 | NHAQMDMKTHVINRLCKE | 0.605 ± 0.57
82 | VFFGVSNVVSATYSYWLRIQ | -0.627 ± 0.76
83 | LVKCSVSVRGEILRFLRYMA | 0.26 ± 0.22
84 | ANNRGVSLDPGVHCVGVLLK | 0.551 ± 0.51
85 | IGLNTYTMF | 0.282 ± 0.49
86 | QDVFCLSGLNSHCK | -1.45 ± 0.78
